Data as given in US9062100B2, “Anti-human TROP-2 antibody having anti-tumor activity in vivo” (LIVTECH, INC., dated 2015).
Where no end group is shown, it is not given here.

Experiments:
human TROP-2 (hTROP-2) [1] = target: T1, human TROP-2 (hTROP-2) (human); assay: FACS on PK-59 cells
T1 chain: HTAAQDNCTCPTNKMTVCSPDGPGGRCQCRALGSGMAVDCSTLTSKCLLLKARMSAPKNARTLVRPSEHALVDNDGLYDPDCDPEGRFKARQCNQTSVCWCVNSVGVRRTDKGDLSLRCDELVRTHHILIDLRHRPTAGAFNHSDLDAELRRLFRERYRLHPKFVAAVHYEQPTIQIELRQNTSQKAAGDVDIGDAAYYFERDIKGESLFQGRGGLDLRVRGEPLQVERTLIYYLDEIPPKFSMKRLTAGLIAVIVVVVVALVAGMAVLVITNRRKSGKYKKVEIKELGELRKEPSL

human TROP-2 (hTROP-2) [2] = target: T1, human TROP-2 (hTROP-2); assay: FACS on BxPC-3 cells
Table 9 peptide No. 26 = Table 9 peptide No. 26 (human); assay: PEPSCAN CLIPS peptide ELISA
Table 9 peptide No. 27 = target: T2, Table 9 peptide No. 27 (human, not fully specified); assay: PEPSCAN CLIPS peptide ELISA
T2 peptide: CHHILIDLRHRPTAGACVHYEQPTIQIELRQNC

Table 9 peptide No. 28 = target: T3, Table 9 peptide No. 28 (human, not fully specified); assay: PEPSCAN CLIPS peptide ELISA
T3 peptide: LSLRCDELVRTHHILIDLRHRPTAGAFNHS

Table 9 peptide No. 29 = Table 9 peptide No. 29 (human); assay: PEPSCAN CLIPS peptide ELISA
Table 9 peptide No. 1 = target: T4, Table 9 peptide No. 1 (human, not fully specified); assay: PEPSCAN CLIPS peptide ELISA
T4 peptide: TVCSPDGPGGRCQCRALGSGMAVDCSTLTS

Table 9 peptide No. 2 = target: T5, Table 9 peptide No. 2 (human, not fully specified); assay: PEPSCAN CLIPS peptide ELISA
T5 peptide: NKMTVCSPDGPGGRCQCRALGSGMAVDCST

Table 9 peptide No. 3 = target: T6, Table 9 peptide No. 3 (human, not fully specified); assay: PEPSCAN CLIPS peptide ELISA
T6 peptide: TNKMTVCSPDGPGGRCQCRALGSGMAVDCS

Table 9 peptide No. 4 = target: T7, Table 9 peptide No. 4 (human, not fully specified); assay: PEPSCAN CLIPS peptide ELISA
T7 peptide: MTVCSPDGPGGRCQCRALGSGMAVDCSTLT

Table 9 peptide No. 5 = target: T8, Table 9 peptide No. 5 (human, not fully specified); assay: PEPSCAN CLIPS peptide ELISA
T8 peptide: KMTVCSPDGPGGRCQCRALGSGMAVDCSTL

Table 9 peptide No. 6 = target: T9, Table 9 peptide No. 6 (human, not fully specified); assay: PEPSCAN CLIPS peptide ELISA
T9 peptide: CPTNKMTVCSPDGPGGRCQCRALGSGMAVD

Table 9 peptide No. 7 = target: T10, Table 9 peptide No. 7 (human, not fully specified); assay: PEPSCAN CLIPS peptide ELISA
T10 peptide: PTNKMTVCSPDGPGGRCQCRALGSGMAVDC

Table 9 peptide No. 8 = target: T11, Table 9 peptide No. 8 (human, not fully specified); assay: PEPSCAN CLIPS peptide ELISA
T11 peptide: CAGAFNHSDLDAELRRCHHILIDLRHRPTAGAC

Table 9 peptide No. 9 = target: T12, Table 9 peptide No. 9 (human, not fully specified; cysteine pairing not given here); assay: PEPSCAN CLIPS peptide ELISA
T12 peptide: CTHHILIDLRHRPTAGC

Table 9 peptide No. 10 = target: T13, Table 9 peptide No. 10 (human, not fully specified); assay: PEPSCAN CLIPS peptide ELISA
T13 peptide: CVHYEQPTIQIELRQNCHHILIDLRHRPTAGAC

Table 9 peptide No. 11 = target: T14, Table 9 peptide No. 11 (human, not fully specified); assay: PEPSCAN CLIPS peptide ELISA
T14 peptide: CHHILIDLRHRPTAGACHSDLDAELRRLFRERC

Table 9 peptide No. 12 = target: T15, Table 9 peptide No. 12 (human, not fully specified); assay: PEPSCAN CLIPS peptide ELISA
T15 peptide: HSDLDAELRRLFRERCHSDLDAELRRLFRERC

Table 9 peptide No. 13 = target: T16, Table 9 peptide No. 13 (human, not fully specified); assay: PEPSCAN CLIPS peptide ELISA
T16 peptide: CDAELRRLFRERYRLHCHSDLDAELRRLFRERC

Table 9 peptide No. 14 = target: T17, Table 9 peptide No. 14 (human, not fully specified; cysteine pairing not given here); assay: PEPSCAN CLIPS peptide ELISA
T17 peptide: CDAELRRLFRERYRLHCPK

Table 9 peptide No. 15 = target: T18, Table 9 peptide No. 15 (human, not fully specified); assay: PEPSCAN CLIPS peptide ELISA
T18 peptide: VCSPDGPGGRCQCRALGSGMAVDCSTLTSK

Table 9 peptide No. 16 = target: T19, Table 9 peptide No. 16 (human, not fully specified); assay: PEPSCAN CLIPS peptide ELISA
T19 peptide: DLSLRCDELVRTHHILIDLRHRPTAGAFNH

Table 9 peptide No. 17 = target: T20, Table 9 peptide No. 17 (human, not fully specified); assay: PEPSCAN CLIPS peptide ELISA
T20 peptide: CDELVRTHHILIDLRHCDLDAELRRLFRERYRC

Table 9 peptide No. 18 = target: T21, Table 9 peptide No. 18 (human, not fully specified; cysteine pairing not given here); assay: PEPSCAN CLIPS peptide ELISA
T21 peptide: CFQGRGGLDLRVRGEPC

Table 9 peptide No. 19 = target: T22, Table 9 peptide No. 19 (human, not fully specified); assay: PEPSCAN CLIPS peptide ELISA
T22 peptide: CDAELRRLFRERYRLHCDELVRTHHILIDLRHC

Table 9 peptide No. 20 = target: T23, Table 9 peptide No. 20 (human, not fully specified); assay: PEPSCAN CLIPS peptide ELISA
T23 peptide: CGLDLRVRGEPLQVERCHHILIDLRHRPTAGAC

Table 9 peptide No. 21 = target: T24, Table 9 peptide No. 21 (human, not fully specified); assay: PEPSCAN CLIPS peptide ELISA
T24 peptide: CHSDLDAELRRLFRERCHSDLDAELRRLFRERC

Table 9 peptide No. 22 = target: T25, Table 9 peptide No. 22 (human, not fully specified); assay: PEPSCAN CLIPS peptide ELISA
T25 peptide: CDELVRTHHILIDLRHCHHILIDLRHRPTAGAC

Table 9 peptide No. 23 = target: T26, Table 9 peptide No. 23 (human, not fully specified); assay: PEPSCAN CLIPS peptide ELISA
T26 peptide: T22 peptide

Table 9 peptide No. 24 = target: T27, Table 9 peptide No. 24 (human, not fully specified); assay: PEPSCAN CLIPS peptide ELISA
T27 peptide: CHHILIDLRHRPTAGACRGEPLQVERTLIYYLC

Table 9 peptide No. 25 = target: T28, Table 9 peptide No. 25 (human, not fully specified; cysteine pairing not given here); assay: PEPSCAN CLIPS peptide ELISA
T28 peptide: CSPDGPGGRCQCRAL

[3] = target: T29, recombinant protein of the extracellular region of hTROP-2 (human); assay: ELISA of free antibody after equilibration with antigen in solution
T29 sequence: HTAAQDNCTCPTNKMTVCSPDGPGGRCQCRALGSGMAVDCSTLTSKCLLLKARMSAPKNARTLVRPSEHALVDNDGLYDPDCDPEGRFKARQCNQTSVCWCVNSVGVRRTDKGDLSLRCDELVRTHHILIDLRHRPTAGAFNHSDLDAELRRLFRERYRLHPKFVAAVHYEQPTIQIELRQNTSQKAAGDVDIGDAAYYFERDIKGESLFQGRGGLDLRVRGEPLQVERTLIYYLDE

Sequence of Table 9 peptide No. 26 (human) (peptide, as listed by the source): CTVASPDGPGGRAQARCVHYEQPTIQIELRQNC
Sequence of Table 9 peptide No. 29 (human) (peptide, as listed by the source): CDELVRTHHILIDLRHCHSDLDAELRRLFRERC

B1: anti-hTROP-2 monoclonal antibody K5-116-2-1 (antibody, V domains shown)
VH: QVQLQQPGAELVRPGASVKLSCKASGYTFTSYWITWVKQRPGQGLEWIGNIYPSDSYTNYNQKFRDKATLTVDKSSSTAYMQLSSPTSEDSAVYYCSALFDYWGQGTTLTVSS
VL: DILLTQSPAILSVSPGERVSFSCRASQSIGTSIHWYQQRTNGSPRLLIKYASESISGIPSRFSGSGSGTDFILSINSVESEDIADYYCQQSNSWPFTFGSGTKLEIK
- mean fluorescence intensity, times that with PE-labeled anti-mouse IgG only (human TROP-2 (hTROP-2) [1]): 122 times
- mean fluorescence intensity, times that with PE-labeled anti-mouse IgG only (human TROP-2 (hTROP-2) [2]): 121 times
- binding of K5-116-2-1 (Table 9 peptide No. 26): 1220
- binding of K5-116-2-1 (Table 9 peptide No. 27): 1220
- binding of K5-116-2-1 (Table 9 peptide No. 28): 1220
- binding of K5-116-2-1 (Table 9 peptide No. 29): 1200
- binding of K5-116-2-1 (Table 9 peptide No. 1): 2670
- binding of K5-116-2-1 (Table 9 peptide No. 2): 2610
- binding of K5-116-2-1 (Table 9 peptide No. 3): 2480
- binding of K5-116-2-1 (Table 9 peptide No. 4): 2440
- binding of K5-116-2-1 (Table 9 peptide No. 5): 2420
- binding of K5-116-2-1 (Table 9 peptide No. 6): 2140
- binding of K5-116-2-1 (Table 9 peptide No. 7): 1720
- binding of K5-116-2-1 (Table 9 peptide No. 8): 1640
- binding of K5-116-2-1 (Table 9 peptide No. 9): 1590
- binding of K5-116-2-1 (Table 9 peptide No. 10): 1500
- binding of K5-116-2-1 (Table 9 peptide No. 11): 1480
- binding of K5-116-2-1 (Table 9 peptide No. 12): 1470
- binding of K5-116-2-1 (Table 9 peptide No. 13): 1460
- binding of K5-116-2-1 (Table 9 peptide No. 14): 1440
- binding of K5-116-2-1 (Table 9 peptide No. 15): 1430
- binding of K5-116-2-1 (Table 9 peptide No. 16): 1420
- binding of K5-116-2-1 (Table 9 peptide No. 17): 1390
- binding of K5-116-2-1 (Table 9 peptide No. 18): 1380
- binding of K5-116-2-1 (Table 9 peptide No. 19): 1370
- binding of K5-116-2-1 (Table 9 peptide No. 20): 1340
- binding of K5-116-2-1 (Table 9 peptide No. 21): 1330
- binding of K5-116-2-1 (Table 9 peptide No. 22): 1320
- binding of K5-116-2-1 (Table 9 peptide No. 23): 1270
- binding of K5-116-2-1 (Table 9 peptide No. 24): 1230
- binding of K5-116-2-1 (Table 9 peptide No. 25): 1230
- Kd [3]: 0.0269 nM
